# Where a chain is given by its changes, count along the chain named. Names may count otherwise.
# B1: target 1 insC 3' of 18,insU 3' of 6 (mixed)
# RNA 1: CACCCGUGCAAAAAUGCAGGGGUCUAAAACUGAGCGGAUAACCUCUCUAUGG
# RNA 2: GGGAAUGGAUCCACAUCUACGAAUUCGUACCAUACGAGAGGUUAUCCUGCUCACCGAGAUCGGAAGAGCACACGU
# B2: target 1 insC 3' of 14,insA 3' of 2 (mixed)
# RNA 1: B1 RNA 1
# RNA 2: GGGAAUGGAUCCACAUCUACGAAUUCGUACCAUAGAGACGGUUAUCCGCUCAACCGAGAUCGGAAGAGCACACGU
# B3: target 1 insC 3' of 17,insG 3' of 6 (mixed)
# RNA 1: B1 RNA 1
# RNA 2: B1 RNA 2 with C35G, G36C, U48G
# B4: target 1 insA 3' of 13,insC 3' of 11 (mixed)
# RNA 1: B1 RNA 1
# RNA 2: GGGAAUGGAUCCACAUCUACGAAUUCGUACCAUAGAGAGAGUCUAUCCGCUCACCGAGAUCGGAAGAGCACACGU
# B5: target 1 insA 3' of 15,insU 3' of 7 (mixed)
# RNA 1: B1 RNA 1
# RNA 2: B1 RNA 2 with C35G, G36A, A37G, G38A, C47U, U48C
# B6: target 1 del9,del15 (mixed)
# RNA 1: B1 RNA 1
# RNA 2: GGGAAUGGAUCCACAUCUACGAAUUCGUACCAUAGAAGGUUUCCGCUCACCGAGAUCGGAAGAGCACACGU
# B7: target 1 C6U,G17U (mixed)
# RNA 1: B1 RNA 1
# RNA 2: GGGAAUGGAUCCACAUCUACGAAUUCGUACCAUAUAGAGGUUAUCUGCUCACCGAGAUCGGAAGAGCACACGU
# B8: target 1 G13A,G17U (mixed)
# RNA 1: B1 RNA 1
# RNA 2: B7 RNA 2 with G39A, U46C
# B9: target 1 insA 3' of 13,insC 3' of 5 (mixed)
# RNA 1: B1 RNA 1
# RNA 2: B2 RNA 2 with C39G, G40A, U50C, C51U, A52C
# B10: target 1 C2G,C4A (mixed)
# RNA 1: B1 RNA 1
# RNA 2: B7 RNA 2 with U35G, U46C, C48A, C50G
# B11: target 1 insC 3' of 20,insC 3' of 1 (mixed)
# RNA 1: B1 RNA 1
# RNA 2: B2 RNA 2 with U33C, A34U, G35A, A36G, G37A, A38G, C39A, A53C
# B12: target 1 insA 3' of 21,insG 3' of 19 (mixed)
# RNA 1: B1 RNA 1
# RNA 2: B4 RNA 2 with U33A, A34U, U42G, C43U
# B13: target 1 insG 3' of 6,insC 3' of 3 (mixed)
# RNA 1: B1 RNA 1
# RNA 2: B2 RNA 2 with C39G, G41U, U43A, A44U, U45C, C47G, A52C
# B14: target 1 insG 3' of 18,insU 3' of 12 (mixed)
# RNA 1: B1 RNA 1
# RNA 2: B1 RNA 2 with C35G, A44U, U45A, C46U, U48C
# B15: target 1 insA 3' of 19,insG 3' of 18 (mixed)
# RNA 1: B1 RNA 1
# RNA 2: B4 RNA 2 with G35A, A36G, U42G, C43U
# B16: target 1 insC 3' of 15,insG 3' of 6 (mixed)
# RNA 1: B1 RNA 1
# RNA 2: B1 RNA 2 with C35G, G36A, A37G, G38C, U48G
# B17: target 1 insA 3' of 17,insC 3' of 12 (mixed)
# RNA 1: B1 RNA 1
# RNA 2: B4 RNA 2 with G37A, A38G, G39A, A40G, U42C, C43U
# B18: target 1 G12A,U19G (mixed)
# RNA 1: B1 RNA 1
# RNA 2: B7 RNA 2 with U33G, U35G, G40A, U46C
# B19: target 1 insU 3' of 20,insC 3' of 13 (mixed)
# RNA 1: B1 RNA 1
# RNA 2: B1 RNA 2 with A34U, C35A, G41C, U42G, A44U, U45A, C46U, U48C
# B20: target 1 insC 3' of 14,insG 3' of 3 (mixed)
# RNA 1: B1 RNA 1
# RNA 2: B2 RNA 2 with C51G, A52C
# B21: target 1 G5U,C7G (mixed)
# RNA 1: B1 RNA 1
# RNA 2: B7 RNA 2 with U35G, C45G, U46C, G47U
# B22: target 1 insA 3' of 12 (mixed)
# RNA 1: B1 RNA 1
# RNA 2: GGGAAUGGAUCCACAUCUACGAAUUCGUACCAUAGAGAGGAUUAUCCGCUCACCGAGAUCGGAAGAGCACACGU
# B23: target 1 insG 3' of 14,insC 3' of 12 (mixed)
# RNA 1: B1 RNA 1
# RNA 2: B4 RNA 2 with A40G, U42C, C43U
# B24: target 1 insG 3' of 6,insA 3' of 5 (mixed)
# RNA 1: B1 RNA 1
# RNA 2: B4 RNA 2 with A40G, G41U, C43A, A45C, U46C, C47G, C48G, G49A
# B25: target 1 C4G,C6G (mixed)
# RNA 1: B1 RNA 1
# RNA 2: B7 RNA 2 with U35G, U46G, C48G
# B26: target 1 insC 3' of 18,insG 3' of 16 (mixed)
# RNA 1: B1 RNA 1
# RNA 2: B4 RNA 2 with G35C, A36G, G37A, A38G, U42G, C43U
# B27: target 1 insU 3' of 7,insU 3' of 7 (mixed)
# RNA 1: B1 RNA 1
# RNA 2: B4 RNA 2 with A40G, G41U, C43A, A45C, C47U
# B28: target 1 insU 3' of 15,insU 3' of 13 (mixed)
# RNA 1: B1 RNA 1
# RNA 2: B4 RNA 2 with A38U, G39A, A40G, G41U, U42G, C43U
# B29: target 1 C7A,G15C (mixed)
# RNA 1: B1 RNA 1
# RNA 2: B7 RNA 2 with U35G, G37C, C45A, U46C
# B30: target 1 insU 3' of 21,insG 3' of 6 (mixed)
# RNA 1: B1 RNA 1
# RNA 2: B1 RNA 2 with A32U, U33A, A34U, C35A, U48G
# B31: target 1 del4,del14 (mixed)
# RNA 1: B1 RNA 1
# RNA 2: B6 RNA 2 with A37G, U42A, C43U, G45C, C46G
# B32: target 1 insA 3' of 8,insG 3' of 1 (mixed)
# RNA 1: B1 RNA 1
# RNA 2: B2 RNA 2 with C39G, G41U, U43A, A44U, U45A, A53G
# B33: target 1 insA 3' of 5,insU 3' of 4 (mixed)
# RNA 1: B1 RNA 1
# RNA 2: B2 RNA 2 with C39G, G41U, U43A, A44U, U45C, C47G, G48A, C51U, A52C
# Biological target: T1, EsCas13d, nuclease-dead (Eubacterium siraeum, UniProt B0MS50, R295A;H300A;R849A;H854A)
# T1 sequence: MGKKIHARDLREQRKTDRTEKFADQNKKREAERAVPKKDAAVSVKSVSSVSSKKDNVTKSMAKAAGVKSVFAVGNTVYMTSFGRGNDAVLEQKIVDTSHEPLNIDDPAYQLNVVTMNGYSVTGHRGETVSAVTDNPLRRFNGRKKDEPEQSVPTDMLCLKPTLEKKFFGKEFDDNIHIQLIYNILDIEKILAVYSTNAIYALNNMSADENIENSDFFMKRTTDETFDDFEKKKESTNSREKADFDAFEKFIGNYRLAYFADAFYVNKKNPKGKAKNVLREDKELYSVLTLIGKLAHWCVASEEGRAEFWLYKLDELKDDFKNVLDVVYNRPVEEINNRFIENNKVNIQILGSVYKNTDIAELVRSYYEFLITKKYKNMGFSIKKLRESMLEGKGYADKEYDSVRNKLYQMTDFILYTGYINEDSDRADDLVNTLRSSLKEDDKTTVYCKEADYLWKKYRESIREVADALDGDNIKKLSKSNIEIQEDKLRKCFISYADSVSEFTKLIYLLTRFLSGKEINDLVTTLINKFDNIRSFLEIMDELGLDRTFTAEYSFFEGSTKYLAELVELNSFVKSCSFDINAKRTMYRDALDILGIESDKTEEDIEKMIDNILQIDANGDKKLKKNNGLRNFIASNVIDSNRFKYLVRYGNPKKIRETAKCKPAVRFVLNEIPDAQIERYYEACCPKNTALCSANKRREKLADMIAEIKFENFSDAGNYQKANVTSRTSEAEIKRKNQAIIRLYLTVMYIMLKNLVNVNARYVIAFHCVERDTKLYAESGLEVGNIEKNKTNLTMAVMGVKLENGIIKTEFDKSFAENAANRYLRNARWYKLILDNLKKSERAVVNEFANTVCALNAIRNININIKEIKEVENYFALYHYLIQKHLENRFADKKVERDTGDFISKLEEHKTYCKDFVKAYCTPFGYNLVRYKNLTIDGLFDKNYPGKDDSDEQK
# Assay: crRNA (strand 1, pre-loaded); Mg2+; 40 mM Tris-HCl pH 7.5, 150 mM NaCl, 6 mM MgCl2, 1 mM DTT, 0.1% Tween-20, 0.2 mg/ml BSA; 25 C; 10 min per concentration, then washed
# Conditions: tags: His6-TwinStrep-SUMO cleaved; N-terminal SNAP kept (SNAP-Surface 488); label: 3' end held by stalled T7 RNA polymerase
row,Binder,Kd [nM]
1,B1,39 ± 4
2,B2,52 ± 13
3,B3,43 ± 8
4,B4,7.8 ± 0.6
5,B5,13.5 ± 0.9
6,B6,44 ± 6
7,B7,22.3 ± 1.5
8,B8,28.6 ± 2.7
9,B9,3.35 ± 0.18
10,B10,6.94 ± 0.32
11,B11,8 ± 0.5
12,B12,51 ± 5
13,B13,13.7 ± 0.8
14,B14,50 ± 6
15,B15,97 ± 30
16,B16,22.1 ± 0.9
17,B17,23 ± 4

row,Binder,Kd [nM]
1,B18,54 ± 15
2,B19,28 ± 3
3,B20,25.6 ± 2.7
4,B21,16.8 ± 0.9
5,B22,29.5 ± 2.9
6,B23,16.7 ± 0.9
7,B24,19.3 ± 1.8
8,B25,3.71 ± 0.17
9,B26,70 ± 13
10,B27,7.9 ± 0.4
11,B28,20 ± 7
12,B29,84 ± 25
13,B30,28.1 ± 3
14,B31,84 ± 32
15,B32,18.3 ± 0.8
16,B33,9.8 ± 1
